According to US9790551B2, “Use of TRPC6 mRNA levels in peripheral blood cells for early detection/diagnosis of senile dementia” (Aging Wise Biotechnology, Inc., priority 2013, dated 2017):

B1: TRPC5: TRPC family member TRPC5, overexpressed from plasmid as comparison (protein, UniProt Q9UL62 1-973, looked up)
chain: MAQLYYKKVNYSPYRDRIPLQIVRAETELSAEEKAFLNAVEKGDYATVKQALQEAEIYYNVNINCMDPLGRSALLIAIENENLEIMELLLNHSVYVGDALLYAIRKEVVGAVELLLSYRRPSGEKQVPTLMMDTQFSEFTPDITPIMLAAHTNNYEIIKLLVQKRVTIPRPHQIRCNCVECVSSSEVDSLRHSRSRLNIYKALASPSLIALSSEDPILTAFRLGWELKELSKVENEFKAEYEELSQQCKLFAKDLLDQARSSRELEIILNHRDDHSEELDPQKYHDLAKLKVAIKYHQKEFVAQPNCQQLLATLWYDGFPGWRRKHWVVKLLTCMTIGFLFPMLSIAYLISPRSNLGLFIKKPFIKFICHTASYLTFLFMLLLASQHIVRTDLHVQGPPPTVVEWMILPWVLGFIWGEIKEMWDGGFTEYIHDWWNLMDFAMNSLYLATISLKIVAYVKYNGSRPREEWEMWHPTLIAEALFAISNILSSLRLISLFTANSHLGPLQISLGRMLLDILKFLFIYCLVLLAFANGLNQLYFYYETRAIDEPNNCKGIRCEKQNNAFSTLFETLQSLFWSVFGLLNLYVTNVKARHEFTEFVGATMFGTYNVISLVVLLNMLIAMMNNSYQLIADHADIEWKFARTKLWMSYFDEGGTLPPPFNIIPSPKSFLYLGNWFNNTFCPKRDPDGRRRRRNLRSFTERNADSLIQNQHYQEVIRNLVKRYVAAMIRNSKTHEGLTEENFKELKQDISSFRYEVLDLLGNRKHPRSFSTSSTELSQRDDNNDGSGGARAKSKSVSFNLGCKKKTCHGPPLIRTMPRSSGAQGKSKAESSSKRSFMGPSLKKLGLLFSKFNGHMSEPSSEPMYTISDGIVQQHCMWQDIRYSQMEKGKAEACSQSEINLSEVELGEVQGAAQSSECPLACSSSLHCASSICSSNSKLLDSSEDVFETWGEACDLLMHKWGDGQEEQVTTRL
modifications: full-length
notes: TRPC family member TRPC5, overexpressed from plasmid as comparison
B2: 389/930aa: TRPC6 fragment 389~930aa expressed from plasmid (protein, UniProt Q9Y210 389-930, looked up, fragment)
chain: SIWYENLSGLRQQTMAVKFLVVLAVAIGLPFLALIYWFAPCSKMGKIMRGPFMKFVAHAASFTIFLGLLVMNAADRFEGTKLLPNETSTDNAKQLFRMKTSCFSWMEMLIISWVIGMIWAECKEIWTQGPKEYLFELWNMLDFGMLAIFAASFIARFMAFWHASKAQSIIDANDTLKDLTKVTLGDNVKYYNLARIKWDPSDPQIISEGLYAIAVVLSFSRIAYILPANESFGPLQISLGRTVKDIFKFMVIFIMVFVAFMIGMFNLYSYYIGAKQNEAFTTVEESFKTLFWAIFGLSEVKSVVINYNHKFIENIGYVLYGVYNVTMVIVLLNMLIAMINSSFQEIEDDADVEWKFARAKLWFSYFEEGRTLPVPFNLVPSPKSLFYLLLKLKKWISELFQGHKKGFQEDAEMNKINEEKKLGILGSHEDLSKLSLDKKQVGHNKQPSIRSSEDFHLNSFNNPPRQYQKIMKRLIKRYVLQAQIDKESDEVNEGELKEIKQDISSLRYELLEEKSQNTEDLAELIRELGEKLSMEPNQEETN
B3: 1/405aa: TRPC6 fragment 1~405aa expressed from plasmid (protein, UniProt Q9Y210 1-405, looked up, fragment)
chain: MSQSPAFGPRRGSSPRGAAGAAARRNESQDYLLMDSELGEDGCPQAPLPCYGYYPCFRGSDNRLAHRRQTVLREKGRRLANRGPAYMFSDRSTSLSIEEERFLDAAEYGNIPVVRKMLEECHSLNVNCVDYMGQNALQLAVANEHLEITELLLKKENLSRVGDALLLAISKGYVRIVEAILSHPAFAEGKRLATSPSQSELQQDDFYAYDEDGTRFSHDVTPIILAAHCQEYEIVHTLLRKGARIERPHDYFCKCNDCNQKQKHDSFSHSRSRINAYKGLASPAYLSLSSEDPVMTALELSNELAVLANIEKEFKNDYKKLSMQCKDFVVGLLDLCRNTEEVEAILNGDVETLQSGDHGRPNLSRLKLAIKYEVKKFVAHPNCQQQLLSIWYENLSGLRQQTMAV
B4: 389/510aa: TRPC6 fragment 389~510aa expressed from plasmid (protein, UniProt Q9Y210 389-510, looked up, fragment)
chain: SIWYENLSGLRQQTMAVKFLVVLAVAIGLPFLALIYWFAPCSKMGKIMRGPFMKFVAHAASFTIFLGLLVMNAADRFEGTKLLPNETSTDNAKQLFRMKTSCFSWMEMLIISWVIGMIWAEC
B5: 437/633aa: TRPC6 fragment 437~633aa expressed from plasmid (protein, UniProt Q9Y210 437-633, looked up, fragment)
chain: RGPFMKFVAHAASFTIFLGLLVMNAADRFEGTKLLPNETSTDNAKQLFRMKTSCFSWMEMLIISWVIGMIWAECKEIWTQGPKEYLFELWNMLDFGMLAIFAASFIARFMAFWHASKAQSIIDANDTLKDLTKVTLGDNVKYYNLARIKWDPSDPQIISEGLYAIAVVLSFSRIAYILPANESFGPLQISLGRTVKD
B6: 508/633aa: TRPC6 fragment 508~633aa expressed from plasmid (protein, UniProt Q9Y210 508-633, looked up, fragment)
chain: AECKEIWTQGPKEYLFELWNMLDFGMLAIFAASFIARFMAFWHASKAQSIIDANDTLKDLTKVTLGDNVKYYNLARIKWDPSDPQIISEGLYAIAVVLSFSRIAYILPANESFGPLQISLGRTVKD
B7: 725/930aa: TRPC6 fragment 725~930aa expressed from plasmid (protein, UniProt Q9Y210 725-930, looked up, fragment)
chain: AMINSSFQEIEDDADVEWKFARAKLWFSYFEEGRTLPVPFNLVPSPKSLFYLLLKLKKWISELFQGHKKGFQEDAEMNKINEEKKLGILGSHEDLSKLSLDKKQVGHNKQPSIRSSEDFHLNSFNNPPRQYQKIMKRLIKRYVLQAQIDKESDEVNEGELKEIKQDISSLRYELLEEKSQNTEDLAELIRELGEKLSMEPNQEETN

Tested on: Aβ levels in HEK293APP stable cells
Assay: Aβ ELISA, HEK293APP stable cells treated with TAT fusion peptides
Format: cell-based
Details: Table 8; HEK293APP stable cells; TAT = 1
Procedure: (§1) Upon collecting the culture medium of the cells, Aβ40 and Aβ42 levels were quantified with sandwich ELISA kit, respectively (purchased from Invitrogen). The forebrain of the mouse was dissected and separated, and then homogenized with GuHCL. After that, total Aβ was determined by ELISA. For determining TBST(Tris-Buffered Saline and 1% TritonX100, 1% SDS, 1% DOC) soluble and insoluble Aβ, upon TBST homogenation and centrifugation of the forebrain of the mouse, the supernatant was determined for TBST soluble Aβ by ELISA, and the precipitate was determined for TBST insoluble Aβ by ELISA upon another GuHCL homogenate.
In this Example, the second transmembrane domain (487-507aa, TM2) was selected to fuse with cell penetrating peptide TAT and the fusion peptide TAT-TM2 and the mutant thereof TAT-TM2mut were obtained. Their effects on Aβ levels were examined in HEK293APP stable cells.
6.1.2 The Effect of Different Doses of Fusion Protein TAT-TM2 on Aβ Levels in HEK293APP Stable Cells were Determined.
To search for shorter fragments which could inhibit Aβ levels, TM2 was divided into N- and C-terminals and fused with TAT respectively. The effects of TAT-TM2-N, TAT-TM2-C and TAT-TM2-C mutant on Aβ levels in HEK293APP cells was examined.

How did the Aβ40 turn out when “TAT-TM2-mut: mutated TAT-TM2 peptide, SEQ ID NO.:22, TSCFSWMEMLIISDDIGMDDAGRKKRRQRRRC (fusion protein)” was run?
Its Aβ40 is 0.89 ± 0.07.

What about the Aβ42 of the same molecule?
Its Aβ42 is 0.93 ± 0.09.

Same assay, conditions: Table 9; TAT-TM2 variants, HEK293APP cells; TAT = 1

With “TAT-TM2-C-m1: TAT-TM2-C mutant, SEQ ID NO.:25, DDSWVIGMIWAGRKKRRQRRRC (fusion protein)” as the molecule, how does the Aβ40 read?
Its Aβ40 is 0.54 ± 0.01.

What about the Aβ42 of the same molecule?
Its Aβ42 is 0.33 ± 0.07.

How did the Aβ40 turn out when “TAT-TM2-C-m2: TAT-TM2-C mutant, SEQ ID NO.:26, IISDDIGMIWAGRKKRRQRRRC (fusion protein)” was run?
Its Aβ40 is 1.09 ± 0.10.

What about the Aβ42 of the same molecule?
Its Aβ42 is 1.04 ± 0.15.

How did the Aβ40 turn out when “TAT-TM2-C-m3: TAT-TM2-C mutant, SEQ ID NO.:27, IISWVIGMDDAGRKKRRQRRRC (fusion protein)” was run?
Its Aβ40 is 1.07 ± 0.11.

What about the Aβ42 of the same molecule?
The Aβ42 was 1.07 ± 0.13.

How did the Aβ40 turn out when “TAT-TM2-C: C-terminal of TM2 fused with TAT, SEQ ID NO.:24, IISWVIGMIWAGRKKRRQRRRC (fusion protein)” was run?
The Aβ40 was 0.71 ± 0.07.

What about the Aβ42 of the same molecule?
The Aβ42 was 0.72 ± 0.03.

Which results are given for “TAT-TM2-N: N-terminal of TM2 fused with TAT, SEQ ID NO.:23, TSCFSWMEMLGRKKRRQRRRC (fusion protein)”?
Aβ40: 0.97 ± 0.04; Aβ42: 0.97 ± 0.04

Tested on: Aβ levels in HEK293APP stable cells
Assay: Aβ ELISA of culture medium, HEK293APP stable cells transfected with TRPC plasmids
Format: cell-based
Details: Table 1; HEK293APP stable cell, 1 ug plasmid, medium ELISA after 48 hr; empty vector = 1
Procedure: as §1
HEK293APP stable cell line was cultured in DMEM culture solution (containing 200 ng/ml G418) with 10% FBS. C0S7C99 cells were cultured in MEM/F12 culture solution (containing 0.4 ug/ml hygromycin B) with 5% FBS, 1% NEAA, and 200 mM Glutamax. All the transfection was conducted by using Lipofectamin 2000 (Invitrogen).
HEK293 cells were inoculated to 60 mm dishes. When the density was close to 80%, 4 ug APP plasmid was transfected with Lipofectamine 2000. After 4 h, the culture medium was replaced and 400 ng/ml of G418 was added. Cells were passage 2 days later and G418 in the culture was maintained at 400 ng/ml. After 2-3 weeks, the cells not transected died gradually, and the survived cells were HEK293 cells expressing APP. Then, G418 was reduced to and maintained at 200 ng/ml.
TRPC6 or TRPC5 was overexpressed in HEK293APP stable cell lines respectively (Cells were passaged into 12-well plates till the densities were close to 80%. Each well was transfected with 1 ug plasmid using Lipofectamine 2000, and the Aβ levels in the medium were determined with ELISA after 48 hr).
Afterwards, HEK293APP stable cells were passaged in 12-well plate till the density approached 80%. Each well was transfected with lug plasmid using Lipofectamine 2000, and the Aβ levels in the culture medium were determined with ELISA after 48 h. The targeting fragment was primarily narrowed down to 437-507aa.
The […] of TRPC6 contains the first transmembrane regions(TM1), the first extracellular loop (Loop1), and the second transmembrane regions (TM2). To further narrow down the active domain, we constructed 3 variant plasmids, with TM2 region replacement by TM1 region (C6-mut1), reversal of TM2 sequence (C6-mut2) or point mutations within TM2 region(C6-mut3). Then HEK293APP stable cells were passaged in 12-well plate. When the density was close to 80%, every well was transfected with lug plasmid using Lipofectamine 2000, and the Aβ levels in the medium were determined with ELISA after 48 h. The active fragment was further narrowed down to 487-507aa.

Which results are given for B1?
Aβ40: 0.9900 ± 0.02548; Aβ42: 0.9488 ± 0.02053

Same assay, conditions: Table 4; TRPC6 fragments, HEK293APP stable cells, 48 h; empty vector = 1

Which results are given for B2?
Aβ40: 0.7699 ± 0.07728; Aβ42: 0.7217 ± 0.0695

What does the source list for B3?
Aβ40: 0.9674 ± 0.06376; Aβ42: 0.9822 ± 0.03662

For B4, which Aβ40 is on record?
The Aβ40 was 0.5959 ± 0.08036.

What about the Aβ42 of the same molecule?
Its Aβ42 is 0.6131 ± 0.1299.

For B5, which Aβ40 is on record?
Its Aβ40 is 0.8146 ± 0.07986.

What about the Aβ42 of the same molecule?
The Aβ42 was 0.7096 ± 0.09708.

With B6 as the molecule, how does the Aβ40 read?
The Aβ40 was 1.016 ± 0.04396.

And the Aβ42?
The Aβ42 was 1.042 ± 0.02037.

For B7, which Aβ40 is on record?
The Aβ40 was 1.007 ± 0.07289.

And the Aβ42?
The Aβ42 was 0.9822 ± 0.0099.
